In patent publication US20230257470A1 (published 2023):

B1: GpH7-B3/GpL16-k0 variant P271H (antibody, human IgG1)
heavy: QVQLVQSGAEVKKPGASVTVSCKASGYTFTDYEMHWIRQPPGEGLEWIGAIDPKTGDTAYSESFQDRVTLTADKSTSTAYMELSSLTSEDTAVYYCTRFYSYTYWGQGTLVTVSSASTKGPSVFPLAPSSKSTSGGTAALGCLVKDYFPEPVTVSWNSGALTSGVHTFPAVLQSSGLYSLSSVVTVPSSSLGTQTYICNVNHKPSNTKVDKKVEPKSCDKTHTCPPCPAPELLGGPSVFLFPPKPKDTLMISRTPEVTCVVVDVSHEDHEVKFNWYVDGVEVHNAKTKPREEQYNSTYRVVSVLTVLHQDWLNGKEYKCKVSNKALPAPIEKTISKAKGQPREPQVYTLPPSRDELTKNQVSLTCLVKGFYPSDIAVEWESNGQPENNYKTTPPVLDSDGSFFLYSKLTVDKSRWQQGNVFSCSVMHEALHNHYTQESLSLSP
light: DIVMTQSPLSLPVTPGEPASISCQASESLVHSNRNTYLHWYLQKPGQSPQLLIYKVSNRFSGVPDRFSGSGSGTDFTLKISRVEAEDVGVYYCSQNTHVPPTFGQGTKVEIE
notes: also called B3 variant; copies: 2 + 2
B2: GpH7-B3/GpL16-k0 variant Q295D (antibody, human IgG1)
heavy: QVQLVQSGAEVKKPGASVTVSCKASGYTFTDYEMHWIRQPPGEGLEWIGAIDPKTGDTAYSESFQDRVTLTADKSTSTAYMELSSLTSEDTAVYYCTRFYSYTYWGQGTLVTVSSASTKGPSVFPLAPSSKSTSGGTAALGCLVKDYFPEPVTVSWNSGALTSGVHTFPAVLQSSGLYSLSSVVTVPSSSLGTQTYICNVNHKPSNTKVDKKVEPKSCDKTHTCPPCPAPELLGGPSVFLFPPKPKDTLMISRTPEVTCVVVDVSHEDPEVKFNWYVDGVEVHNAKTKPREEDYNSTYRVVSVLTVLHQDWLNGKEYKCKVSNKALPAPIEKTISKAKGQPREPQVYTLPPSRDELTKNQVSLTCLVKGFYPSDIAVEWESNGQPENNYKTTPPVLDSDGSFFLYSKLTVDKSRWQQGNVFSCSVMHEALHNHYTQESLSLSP
light: DIVMTQSPLSLPVTPGEPASISCQASESLVHSNRNTYLHWYLQKPGQSPQLLIYKVSNRFSGVPDRFSGSGSGTDFTLKISRVEAEDVGVYYCSQNTHVPPTFGQGTKVEIE
notes: as for B1
B3: GpH7-B3/GpL16-k0 variant P271Y (antibody, human IgG1)
heavy: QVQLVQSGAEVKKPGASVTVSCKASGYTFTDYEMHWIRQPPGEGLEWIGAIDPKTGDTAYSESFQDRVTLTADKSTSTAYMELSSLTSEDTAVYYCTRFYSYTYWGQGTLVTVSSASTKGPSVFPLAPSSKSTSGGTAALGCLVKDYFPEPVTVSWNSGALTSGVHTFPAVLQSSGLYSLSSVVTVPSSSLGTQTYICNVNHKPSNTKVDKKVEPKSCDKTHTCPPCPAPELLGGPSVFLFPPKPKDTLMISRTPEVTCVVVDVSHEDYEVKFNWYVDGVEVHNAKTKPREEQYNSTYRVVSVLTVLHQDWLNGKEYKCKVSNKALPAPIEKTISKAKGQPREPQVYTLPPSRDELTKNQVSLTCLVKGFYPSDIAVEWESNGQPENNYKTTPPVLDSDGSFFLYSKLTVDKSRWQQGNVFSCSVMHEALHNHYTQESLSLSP
light: DIVMTQSPLSLPVTPGEPASISCQASESLVHSNRNTYLHWYLQKPGQSPQLLIYKVSNRFSGVPDRFSGSGSGTDFTLKISRVEAEDVGVYYCSQNTHVPPTFGQGTKVEIE
notes: as for B1
B4: GpH7-B3/GpL16-k0 variant P271S (antibody, human IgG1)
heavy: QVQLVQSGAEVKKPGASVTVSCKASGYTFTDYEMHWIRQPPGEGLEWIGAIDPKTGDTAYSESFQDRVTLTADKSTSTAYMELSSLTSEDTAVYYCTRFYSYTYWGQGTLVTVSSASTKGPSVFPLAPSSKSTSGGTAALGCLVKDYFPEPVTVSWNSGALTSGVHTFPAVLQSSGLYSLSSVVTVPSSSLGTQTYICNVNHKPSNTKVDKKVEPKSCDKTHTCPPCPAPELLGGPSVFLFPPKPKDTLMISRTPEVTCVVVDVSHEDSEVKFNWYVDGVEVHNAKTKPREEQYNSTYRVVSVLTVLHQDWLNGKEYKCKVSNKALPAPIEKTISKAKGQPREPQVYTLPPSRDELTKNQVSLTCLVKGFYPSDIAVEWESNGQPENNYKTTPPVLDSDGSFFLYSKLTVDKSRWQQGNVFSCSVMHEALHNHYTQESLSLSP
light: DIVMTQSPLSLPVTPGEPASISCQASESLVHSNRNTYLHWYLQKPGQSPQLLIYKVSNRFSGVPDRFSGSGSGTDFTLKISRVEAEDVGVYYCSQNTHVPPTFGQGTKVEIE
notes: as for B1
B5: GpH7-B3/GpL16-k0 variant P271T (antibody, human IgG1)
heavy: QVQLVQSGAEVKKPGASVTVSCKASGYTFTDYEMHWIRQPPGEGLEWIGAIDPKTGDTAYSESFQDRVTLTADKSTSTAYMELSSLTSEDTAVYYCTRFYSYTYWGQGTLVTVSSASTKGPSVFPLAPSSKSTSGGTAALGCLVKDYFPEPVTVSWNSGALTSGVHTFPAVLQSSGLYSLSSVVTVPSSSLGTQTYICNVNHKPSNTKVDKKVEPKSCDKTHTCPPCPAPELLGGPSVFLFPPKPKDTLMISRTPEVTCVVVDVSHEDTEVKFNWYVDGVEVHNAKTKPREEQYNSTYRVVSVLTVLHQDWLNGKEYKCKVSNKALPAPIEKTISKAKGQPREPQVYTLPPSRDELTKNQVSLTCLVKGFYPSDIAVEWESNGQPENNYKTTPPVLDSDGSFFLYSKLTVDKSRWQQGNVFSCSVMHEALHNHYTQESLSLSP
light: DIVMTQSPLSLPVTPGEPASISCQASESLVHSNRNTYLHWYLQKPGQSPQLLIYKVSNRFSGVPDRFSGSGSGTDFTLKISRVEAEDVGVYYCSQNTHVPPTFGQGTKVEIE
notes: as for B1
B6: GpH7-B3/GpL16-k0 variant P271R (antibody, human IgG1)
heavy: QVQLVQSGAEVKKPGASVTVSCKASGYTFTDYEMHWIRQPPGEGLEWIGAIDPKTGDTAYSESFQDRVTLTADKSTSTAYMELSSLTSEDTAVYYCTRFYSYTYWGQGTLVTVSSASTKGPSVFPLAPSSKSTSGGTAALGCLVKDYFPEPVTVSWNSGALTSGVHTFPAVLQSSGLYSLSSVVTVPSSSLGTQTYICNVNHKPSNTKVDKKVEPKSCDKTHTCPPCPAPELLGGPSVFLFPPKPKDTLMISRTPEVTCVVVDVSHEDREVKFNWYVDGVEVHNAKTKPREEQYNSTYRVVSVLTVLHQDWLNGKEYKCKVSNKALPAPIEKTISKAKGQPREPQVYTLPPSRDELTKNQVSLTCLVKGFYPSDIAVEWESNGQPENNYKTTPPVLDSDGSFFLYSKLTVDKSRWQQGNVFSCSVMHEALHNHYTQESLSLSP
light: DIVMTQSPLSLPVTPGEPASISCQASESLVHSNRNTYLHWYLQKPGQSPQLLIYKVSNRFSGVPDRFSGSGSGTDFTLKISRVEAEDVGVYYCSQNTHVPPTFGQGTKVEIE
notes: as for B1
B7: GpH7-B3/GpL16-k0 variant P271W (antibody, human IgG1)
heavy: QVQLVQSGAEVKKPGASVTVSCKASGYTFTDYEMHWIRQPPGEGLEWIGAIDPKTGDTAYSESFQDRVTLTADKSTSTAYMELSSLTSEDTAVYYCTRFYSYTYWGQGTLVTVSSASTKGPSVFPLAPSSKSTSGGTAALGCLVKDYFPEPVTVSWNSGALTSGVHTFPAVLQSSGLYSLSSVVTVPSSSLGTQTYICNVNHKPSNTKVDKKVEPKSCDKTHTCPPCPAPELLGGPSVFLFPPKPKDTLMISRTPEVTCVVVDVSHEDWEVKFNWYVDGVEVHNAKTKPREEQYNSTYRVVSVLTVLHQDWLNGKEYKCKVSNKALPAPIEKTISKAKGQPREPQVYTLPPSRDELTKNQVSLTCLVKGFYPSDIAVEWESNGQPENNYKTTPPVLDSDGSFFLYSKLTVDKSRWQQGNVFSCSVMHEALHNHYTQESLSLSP
light: DIVMTQSPLSLPVTPGEPASISCQASESLVHSNRNTYLHWYLQKPGQSPQLLIYKVSNRFSGVPDRFSGSGSGTDFTLKISRVEAEDVGVYYCSQNTHVPPTFGQGTKVEIE
notes: as for B1
B8: GpH7-B3/GpL16-k0 variant Q295G (antibody, human IgG1)
heavy: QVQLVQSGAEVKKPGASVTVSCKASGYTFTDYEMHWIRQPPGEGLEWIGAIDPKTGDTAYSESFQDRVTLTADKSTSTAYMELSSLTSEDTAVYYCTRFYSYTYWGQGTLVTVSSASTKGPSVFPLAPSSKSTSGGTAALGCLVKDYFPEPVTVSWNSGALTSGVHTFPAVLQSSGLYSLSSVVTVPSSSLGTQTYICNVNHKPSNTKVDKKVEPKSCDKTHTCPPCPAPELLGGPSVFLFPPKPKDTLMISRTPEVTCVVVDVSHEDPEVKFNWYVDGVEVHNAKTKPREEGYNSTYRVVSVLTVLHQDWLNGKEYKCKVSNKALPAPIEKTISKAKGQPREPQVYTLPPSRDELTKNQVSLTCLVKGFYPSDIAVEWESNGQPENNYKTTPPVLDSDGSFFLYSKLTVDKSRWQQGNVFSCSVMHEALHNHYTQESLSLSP
light: DIVMTQSPLSLPVTPGEPASISCQASESLVHSNRNTYLHWYLQKPGQSPQLLIYKVSNRFSGVPDRFSGSGSGTDFTLKISRVEAEDVGVYYCSQNTHVPPTFGQGTKVEIE
notes: as for B1
B9: GpH7-B3/GpL16-k0 variant Q295F (antibody, human IgG1)
heavy: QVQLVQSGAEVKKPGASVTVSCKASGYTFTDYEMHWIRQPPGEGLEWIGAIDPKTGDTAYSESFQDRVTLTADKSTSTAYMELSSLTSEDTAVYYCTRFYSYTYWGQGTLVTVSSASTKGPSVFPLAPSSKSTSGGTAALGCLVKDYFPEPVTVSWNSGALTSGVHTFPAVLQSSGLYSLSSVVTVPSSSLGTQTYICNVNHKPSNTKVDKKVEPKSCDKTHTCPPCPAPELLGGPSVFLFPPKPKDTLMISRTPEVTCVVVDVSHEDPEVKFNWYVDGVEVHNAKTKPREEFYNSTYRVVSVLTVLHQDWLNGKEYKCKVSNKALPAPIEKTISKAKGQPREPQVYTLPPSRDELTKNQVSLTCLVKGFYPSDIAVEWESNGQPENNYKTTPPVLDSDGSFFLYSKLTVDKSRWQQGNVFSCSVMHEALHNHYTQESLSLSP
light: DIVMTQSPLSLPVTPGEPASISCQASESLVHSNRNTYLHWYLQKPGQSPQLLIYKVSNRFSGVPDRFSGSGSGTDFTLKISRVEAEDVGVYYCSQNTHVPPTFGQGTKVEIE
notes: as for B1

How the values were obtained:
Assay in all cases: SPR (Biacore), antibody captured, FcγR as analyte; amount bound / that of GpH7-B3/GpL16-k0 x 100;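 also: FcγR binding response divided by the captured antibody amount before comparison, measured at 25 °C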
human FcγRIIa(H) = biological target: T1, human FcγRIIa(H) (human, UniProt P12318 36-217)
T1 construct: also called FcgRIIaH; FcγRIIa type H
T1 sequence: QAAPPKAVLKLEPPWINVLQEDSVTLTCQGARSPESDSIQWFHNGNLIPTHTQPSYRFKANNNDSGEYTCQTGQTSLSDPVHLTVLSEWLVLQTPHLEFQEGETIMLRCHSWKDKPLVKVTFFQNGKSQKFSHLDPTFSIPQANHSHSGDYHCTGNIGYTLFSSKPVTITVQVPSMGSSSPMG
Description: (§1) Interaction between each modified antibody and Fcγ receptor prepared in the manner described above was analyzed using the BIACORE™ T100 surface plasmon resonance system (GE Healthcare), BIACORE™ T200 surface plasmon resonance system (GE Healthcare), BIACORE™ A100 surface plasmon resonance system or BIACORE™ 4000 surface plasmon resonance system. HBS-EP+(GE Healthcare) was used for the running buffer, and measurements were carried out at 25° C. The chips used were chips in which antigen peptides, Protein A (Thermo Scientific), Protein A/G (Thermo Scientific) or Protein L (ACTIGEN® protein (Alltech or BioVision) were immobilized on the Series S Sensor Chip CM5 (GE Healthcare) or Series S Sensor Chip CM4 (GE Healthcare) by amine coupling, or chips in which preliminarily biotinylated antigen peptides were allowed to interact and then immobilized on the Series S Sensor Chip SA (certified) (GE Healthcare). The target antibodies were captured on these sensor chips, Fcγ receptor diluted with the running buffer was allowed to interact, followed by measurement of the amount of bound antibody. The amounts bound were compared between antibodies. However, since the amount of Fcγ receptor bound depends on the amount of captured antibody, the values used for comparison were first corrected by dividing the amount of Fcγ receptor bound by the captured amount of each antibody. Through reaction with 10 mM glycine-HCl at pH 1.5, the sensor chips were regenerated by washing off antibody captured on the sensor chips and used repeatedly.
(§2) Binding strength was evaluated according to the following method based on the results of analyzing the interaction with each FcγR. […] That value was then further multiplied by 100, and the resulting value was used as an indicator of relative binding activity to each FcγR.

human FcγRIIa(R) = biological target: T2, human FcγRIIa(R) (human, UniProt P12318 36-217)
T2 construct: also called FcgRIIaR; FcγRIIa type R
T2 chain: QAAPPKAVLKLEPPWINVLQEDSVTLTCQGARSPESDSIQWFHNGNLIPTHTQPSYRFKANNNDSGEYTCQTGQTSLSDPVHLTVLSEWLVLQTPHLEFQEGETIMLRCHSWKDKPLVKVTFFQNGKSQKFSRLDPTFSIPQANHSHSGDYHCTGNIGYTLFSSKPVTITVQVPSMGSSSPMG
Description: as §1, §2

human FcγRIIIa(F) = biological target: T3, human FcγRIIIa(F) (human, UniProt P08637 17-208, limits assumed)
T3 construct: also called FcgRIIIaF; FcγRIIIa allotype F158
Description: as §1, §2

human FcγRIa = biological target: T4, human FcγRIa (human, UniProt P12314 16-292, limits assumed)
T4 construct: also called FcgRIa; CD64
Description: as §1, §2

human FcγRIIb = biological target: T5, human FcγRIIb (human, UniProt P31994 43-217, limits assumed)
T5 construct: also called FcgRIIb; FcγIIB
T5 sequence: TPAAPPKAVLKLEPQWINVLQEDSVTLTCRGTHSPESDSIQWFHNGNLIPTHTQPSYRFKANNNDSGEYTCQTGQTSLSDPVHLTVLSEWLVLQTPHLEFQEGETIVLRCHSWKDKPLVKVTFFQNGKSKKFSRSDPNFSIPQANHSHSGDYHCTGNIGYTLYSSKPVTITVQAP
Description: as §1, §2

T4 sequence (P12314 16-292 limits assumed): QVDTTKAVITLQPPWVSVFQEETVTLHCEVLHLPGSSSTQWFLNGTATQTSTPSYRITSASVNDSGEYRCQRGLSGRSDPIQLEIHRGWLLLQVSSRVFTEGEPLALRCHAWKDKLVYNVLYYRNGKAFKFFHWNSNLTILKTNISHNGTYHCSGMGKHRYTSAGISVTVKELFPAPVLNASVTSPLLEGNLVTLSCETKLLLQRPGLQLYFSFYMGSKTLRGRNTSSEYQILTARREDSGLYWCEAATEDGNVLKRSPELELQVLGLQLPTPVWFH
T3 sequence (P08637 other isoform, or with tags, fused parts or gaps limits assumed): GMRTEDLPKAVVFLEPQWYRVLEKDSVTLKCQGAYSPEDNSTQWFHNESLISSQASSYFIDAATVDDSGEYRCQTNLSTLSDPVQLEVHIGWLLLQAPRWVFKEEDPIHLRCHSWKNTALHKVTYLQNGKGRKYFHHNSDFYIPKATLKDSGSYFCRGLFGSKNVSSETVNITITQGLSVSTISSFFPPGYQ

Binder | relative binding activity (human FcγRIIa(H)) | relative binding activity (human FcγRIIa(R)) | relative binding activity (human FcγRIIIa(F)) | relative binding activity (human FcγRIa) | relative binding activity (human FcγRIIb)
B1 | 58 GpH7-B3/GpL16-k0 = 100 | 58 GpH7-B3/GpL16-k0 = 100 | 50 GpH7-B3/GpL16-k0 = 100 | 98 GpH7-B3/GpL16-k0 = 100 | 53 GpH7-B3/GpL16-k0 = 100
B2 | 37 GpH7-B3/GpL16-k0 = 100 | 43 GpH7-B3/GpL16-k0 = 100 | 64 GpH7-B3/GpL16-k0 = 100 | 95 GpH7-B3/GpL16-k0 = 100 | 40 GpH7-B3/GpL16-k0 = 100
B3 | 48 GpH7-B3/GpL16-k0 = 100 | 38 GpH7-B3/GpL16-k0 = 100 | 33 GpH7-B3/GpL16-k0 = 100 | 98 GpH7-B3/GpL16-k0 = 100 | 28 GpH7-B3/GpL16-k0 = 100
B4 | 67 GpH7-B3/GpL16-k0 = 100 | 83 GpH7-B3/GpL16-k0 = 100 | 62 GpH7-B3/GpL16-k0 = 100 | 99 GpH7-B3/GpL16-k0 = 100 | 82 GpH7-B3/GpL16-k0 = 100
B5 | 42 GpH7-B3/GpL16-k0 = 100 | 73 GpH7-B3/GpL16-k0 = 100 | 31 GpH7-B3/GpL16-k0 = 100 | 98 GpH7-B3/GpL16-k0 = 100 | 78 GpH7-B3/GpL16-k0 = 100
B6 | 99 GpH7-B3/GpL16-k0 = 100 | 89 GpH7-B3/GpL16-k0 = 100 | 76 GpH7-B3/GpL16-k0 = 100 | 100 GpH7-B3/GpL16-k0 = 100 | 87 GpH7-B3/GpL16-k0 = 100
B7 | 75 GpH7-B3/GpL16-k0 = 100 | 46 GpH7-B3/GpL16-k0 = 100 | 57 GpH7-B3/GpL16-k0 = 100 | 100 GpH7-B3/GpL16-k0 = 100 | 33 GpH7-B3/GpL16-k0 = 100
B8 | 41 GpH7-B3/GpL16-k0 = 100 | 36 GpH7-B3/GpL16-k0 = 100 | 55 GpH7-B3/GpL16-k0 = 100 | 89 GpH7-B3/GpL16-k0 = 100 | 28 GpH7-B3/GpL16-k0 = 100
B9 | 74 GpH7-B3/GpL16-k0 = 100 | 46 GpH7-B3/GpL16-k0 = 100 | 46 GpH7-B3/GpL16-k0 = 100 | 99 GpH7-B3/GpL16-k0 = 100 | 30 GpH7-B3/GpL16-k0 = 100
